Test results reported in US20240084003A1 (SIMCERE ZAIMING PHARMACEUTICAL, published 2024).

T1: monkey CD22 on HEK293T-monkey CD22 cells (monkey)
T1 construct: full-length entry expressed on stably transfected HEK293T cells
T1 chain: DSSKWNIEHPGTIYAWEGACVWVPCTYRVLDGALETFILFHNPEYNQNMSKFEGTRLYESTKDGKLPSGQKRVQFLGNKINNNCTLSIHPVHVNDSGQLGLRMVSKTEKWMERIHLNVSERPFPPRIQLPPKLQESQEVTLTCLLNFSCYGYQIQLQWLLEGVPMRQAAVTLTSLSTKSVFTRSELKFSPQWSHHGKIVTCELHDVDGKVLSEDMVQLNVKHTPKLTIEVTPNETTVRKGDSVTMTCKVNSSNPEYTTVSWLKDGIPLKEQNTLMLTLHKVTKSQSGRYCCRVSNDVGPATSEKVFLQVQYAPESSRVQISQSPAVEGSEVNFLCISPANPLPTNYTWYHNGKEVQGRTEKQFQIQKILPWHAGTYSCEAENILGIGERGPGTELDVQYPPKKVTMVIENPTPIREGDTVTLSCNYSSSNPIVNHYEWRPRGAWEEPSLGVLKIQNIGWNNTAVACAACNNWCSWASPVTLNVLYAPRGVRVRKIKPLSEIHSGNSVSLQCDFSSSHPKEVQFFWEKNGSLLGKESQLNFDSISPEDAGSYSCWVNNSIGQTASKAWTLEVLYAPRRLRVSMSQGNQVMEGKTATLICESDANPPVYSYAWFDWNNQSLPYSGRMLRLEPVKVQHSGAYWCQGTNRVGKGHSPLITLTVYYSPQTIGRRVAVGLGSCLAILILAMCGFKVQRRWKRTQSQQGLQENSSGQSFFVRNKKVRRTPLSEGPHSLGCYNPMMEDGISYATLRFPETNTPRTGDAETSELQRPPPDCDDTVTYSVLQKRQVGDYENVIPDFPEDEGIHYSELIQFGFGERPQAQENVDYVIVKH


Target: T1, monkey CD22 on HEK293T-monkey CD22 cells
Experiment: FACS, HEK293T-monkey CD22 cells
Description: For suspension cell Raji, the medium supernatant was directly centrifuged and discarded, and the cell pellet was washed 2 times with PBS. After counting the cells in the previous step, the cell pellet was resuspended with [PBS+2% (w/w) BSA] blocking solution to 2×10⁶ cells/ml, and added to a 96-well FACS reaction plate at 50 μl/well, and then the chimeric antibody test sample was added at 50 μl/well, and incubated on ice for 2 hours. The mixture was centrifuged and washed 3 times with PBS buffer, Alexa Flour 488-labeled secondary antibody (purchased from Invitrogen, catalog number: A-11013) was added at 50 μl/well, and incubated on ice for 1 hour. The obtained mixture was centrifuged and washed 5 times with PBS, and FACS (FACS Canto™, purchased from BD Company) was used for detection and result analysis. Data analysis was performed by software (CellQuest) to obtain the mean fluorescence density (MFI)of the cells. And then software (GraphPad Prism8) was used for analysis, data fitting, and EC50 value calculation. […] The same method was used to detect the binding of the chimeric antibodies to endogenous CD22-negative cell MoLT4 cells (purchased from ATCC, CRL-1582) and CHO-K1 cells.
HEK293T-monkey CD22 cells were subjected to FACS detection and data analysis according to the method in Example 5.2.

Binder	EC50 [nM]	Maximum mean fluorescence intensity [MFI]
F1.7.6 (antibody, human IgG1, kappa, V domains shown, human-murine chimeric IgG1 kappa; VL name legible) VH: EIQLQQSGPELVKPGTSVKVSCKASGYDFTRYNMYWVKQSHGKSLEWIGYIDPYNGDTRYNQKFKGKATLTVDKSSSTAYMHLNSLTSEDSAVYYCEAIYYDMEGYALDYWGQGTSVTVSS VL: DIVMSQSPSSLAVSVGEKVTMSCKSSQSLLYSNNQKNYLAWYQQKPGQSPKKLIYWASTRESGVPDRLTGSGSGTDFTLTISSVTAEDLAVYYCQQFYSYPWTFGGGTKLEIKR	2.22	9220
F1.60.9 (antibody, human IgG1, kappa, V domains shown, human-murine chimeric IgG1 kappa) VH: QVQLKESGPGLVAPSQSLSITCTVSGLSLNNYGVSWVRQPPGKGLEWLGVIWGDGSTNYHSALISRLSISKDNSKSQVFLKLNSLHTDDTATYYCAINWGDYWGQGTTLIVSS VL: DIKMTQSPSSMNASLGERVTITCKASQDINSYLSWFQQKPGKSPKILIYRANRLIDGVPSRFSGSGSGQDYSLTISSLEYEDMGIYYCLQYGVFPLTFGAGTKLELKR	–	531
F1.200.11 (antibody, human IgG1, kappa, V domains shown, human-murine chimeric IgG1 kappa) VH: QNQLVQSGPELKKPGETVKISCKASGYTFTTAGMQWVQKMPGKGFKWIGWINTLSGEPKYAEDFKGRFAFSLETSATTAYLQISNLKNEDTATYFCARAYYSNLYWYFDVWGTGTTVTVSS VL: DIVMTQSQKFMSTTVGDRVTITCKASQNVVTAVAWYQQKPGQSPKVLIYSASNRYSGVPDRFTGSGSGTDFTLTISNMHSEDLANYFCHQYSSYPFTFGSGTKLEIKR	4.32	16200
F1.105.11 (antibody, human IgG1, kappa, V domains shown, human-murine chimeric IgG1 kappa; VL name legible) VH: EVQLQQSGPVLVKPGASVKMSCKASGYTFSDYFMNWVKQSHGKSLEWIGIINSYSGGTSYNQKFKGKATLTVDKSSSTAYMELNSLTSEDSAVYYCARWMDYWGQGTSVTVSS VL: DVQITQSPSYLAASPGETITINCRTSESISKHLAWYQEKPGKTNKLLIYSGSTLQSGIPSRFSGSGSGTDFTLTISSLEPEDFAMYYCQQHNEYPWTFGGGTKLEIKR	1.3	7530
F1.231.15 (antibody, IgG1, V domains shown, human-murine chimeric IgG1 kappa) VH: QVQLQQPGAELVKPGASVKLSCKTSGYTFTIYWMQWVKQRPGRGLEWIGRIDPHSGDTHYNENFTTKVTLTVDETSNTAYMHLSGLTSEDSAVYYCARRDYSYYVLDYWGQGTSVTVSS VL: DVVLTQTPLSLPVSLGDQASISCRSSQSLVHINGDTYLHWYLQKPGQSPKLLIYTVFNRFSGVPDRFSGSGSGTDFTLKISRVEAEDLGAYFCSQSTHVPYTFGGGTKLEIKR	12.3	9250
F1.245.2 (antibody, human IgG1, kappa, V domains shown, human-murine chimeric IgG1 kappa) VH: EVQLQQSGAELVKPGASVKLSCTGSGFNIKDYYIHWVKQRTEQGLEWMGRIDPEDGETEYAPKFQDEATITSDTSSNTAYLQLSSLTYEDTAVYYCAREAAGYFYRGSSYGYFDVWGTGTTVTVSS VL: DFQMTQTTSFLSASLGDRVTISCSASQDISNYLNWYQQKPDGTVKLLIYYTSSLHSGVPSRFSGSGSGTDYSLTISNLEPEDIATYYCQQYSMLPYTFGGGTKLEMER	–	124
F1.257.3 (antibody, human IgG1, kappa, V domains shown, human-murine chimeric IgG1 kappa; VL name legible) VH: QVQLQQSGPELARPGASVKLSCKASGYTFTSYGISWVKQRTGQDLEWIGEIYPKLGTTYYNEKFKDKATLTTDRSSSTAYMALRSLTSEDSAVYFCACPHYYATRGGDYWGQGTTLTVSS VL: EIVLTQSPATLSVTPGDSVTFSCRASQSISNHLHWYQQKSHESPRLLIRYASQSISGIPSRFSGSGSGTDFTLSLSSVETEDFGVYFCQQSHSWPYTFGGGTKLEIAR	–	147
F1.62.10 (antibody, human IgG1, kappa, V domains shown, human-murine chimeric IgG1 kappa) VH: QVQLQQSGPELVKPGASVKISCKASGYEFSSIWMNWVKQRPGEGLEWIGRIFPGDGEINYNEKFKGKATLTADRSSTTAYMQLSSLTSEDSAVYFCAGWRIYYGTYGAMDYWGQGTSVTVSS VL: DIQMTQITSSLSASLGDRVTISCRASQDIGNYLNWYQQKPDGTVKLLIYYTSRLHSGVPSRFSGSGSRTDYSLTISNLQQEDIATYFCQQGNTLPWTFGGGTKLEIKR	41.1	4330
F1.267.9 (antibody, human IgG1, kappa, V domains shown, human-murine chimeric IgG1 kappa; VL name legible) VH: EVQLQQSGPVLVKPGASVKMSCKASGYTFTDFYMNWAKQSHGKSLEWVGVINPYNGGINYNQKFKGKATLTVDKSSSTAYMEFNSLTSEDSAVYYCARRMEYHAMDYWGQGTSVTVSS VL: DIVLTQSPASLAVSLGQRATISCRASESVDNYGFDFIHWYQQKPGQPPKLLIYRASNLESGIPARFSGSGSRPDFTLTINPVETDDVATYYCQQSIKDPWTFGGGTKLEIKR	1.15	15300

Now from value to binder:

EC50 [nM]	Maximum mean fluorescence intensity [MFI]	Binder
0.38	17200	F1.17.1 (antibody, human IgG1, kappa, V domains shown, human-murine chimeric IgG1 kappa) VH: QVQLKESGPGLVAPSQSLSITCTVSGFSLSRYTVHWVRQPPGKGLEWLGMIWGGGSTDYNSALKSRLSISKDNSKSQVFLKMNSLQTDDTAMYYCARPHDFDAGGFAYWGQGTLVTVSA VL: QIVLTQSPAILSTSPGEKVTMTCSASSRVNYMYWYQQKPGSSPRLLIYDTSNLASGVPVRFSGSGSGTSYSLTISRMEAEDAATYYCQQWTSYPLTFGAGTKLELKR
0.62	16300	F1.192.1 (antibody, human IgG1, kappa, V domains shown, human-murine chimeric IgG1 kappa) VH: AVQLQQSGVELVRPGASVKLSCTGSDFNIKEDYIHWVKQRPEQGLEWIGWIDPENGDTEYASKFQGKATITADTSSNTAYLQLSSLTSEDTAVYYCATYGSLDYWGQGTTLTVSS VL: DIKMTQSPSSMYAFLGERVTITCKASQGINSFLTWFQQKPGKSPKTLIYRANRLVDGVPSRFSGSGSGQDYSLTISSLEYEDVGIYYCLQYDEFPRTFGGGTKLEIKR
0.31	19700	F1.250.16 (antibody, human IgG1, kappa, V domains shown, human-murine chimeric IgG1 kappa; VL name legible) VH: QVQLQQSGAEQVKPGASVKMSCKASGYTFTTYPIEWMKQNHGESLDWIGNIHPYNDDTEYNEKFKGKATLTVEKSSNTVFLELSRLTSDDSAVYYCVRGDYYNSRYWYFDVWGTGTTVTVSS VL: DIVMTQSQKFMSTTVGDRVSITCKAGQNVRTAVAWYQQKPGQSPKLLIYSASTRYIGVPERFTGSGSGTDFTLTITNMQSEDLADYFCQQYSSFPLTFGTGTKLELKR
0.79	16300	F1.224.1 (antibody, human IgG1, kappa, V domains shown, human-murine chimeric IgG1 kappa; VL name legible) VH: EVLLHQSGPELVKPGASVKISCKASGYTFTDFNMDWVRQRHGQSLEWIGDVNPNNGGTIYNQKFKGKATLTVDKSSSTVYMDLRSLTSDDTAVYYCVRLGTSDYGEAWFISWGQGTVVTVSA VL: DIVLTQSPASLAVSLGQRATISCRASQSVSTPRYSFMHWYQQKPGQPPKLLIKYASNLESGFPARFTGSGSGTDFTLNIHPVEEEDTAAYYCQQSWAIPWTFGGGTKLEIKR
0.47	19000	F1.172.13 (antibody, human IgG1, kappa, V domains shown, human-murine chimeric IgG1 kappa) VH: QVTLKESGPGILQSSQTLSLTCSFSGFSLSTSGMGVSWIRQPSGKGLEWLAHIYWDDDKRYNPSLKSRLTISKDTSRNQVFLKITSVDTADTATYYCARAPPPNWDEYYFDYWGQGTTLTVSS VL: DIQMTQSPASLSASVGETVTITCRASGNIHNSLAWYQQKQGKSPQLLVHNAKTLADGVPSRFSGSGSGTQYSLKINSLQPEDFGSYYCQHFWSTPPFGGGTKLEIKR
0.26	13900	F1.216.2 (antibody, human IgG1, kappa, V domains shown, human-murine chimeric IgG1 kappa) VH: QVQLQQSGPEVVRPGASVKISCKASGYAFSSSWMNWMKQRPGKALEWIGRIYPGDGDTNYSGEFKVKATLTADKSSSTAYMQLSSLTSEDSAVYFCAREGSYYSNPWYFDYWGQGTTLTVSS VL: DVLVTQTPLSLPVSLGDQASISCRSSQSIVQSNGDTYLEWYLQKPGQSPKLLIYKVSNRFSGVPDRFSGSGSGTDFTLKISRVEAEDLGVYYCFQGSHVPFTFGSGTKLEIKR
0.95	13600	F1.120.15 (antibody, human IgG1, kappa, V domains shown, human-murine chimeric IgG1 kappa) VH: QVQLQQSGPELVKPGASVKISCKASGNAFSNSWMNWVKQRPGKGLEWIGRVYSEDGDTQYNGKFRDKATLTADRSTSTAYMQLSSLTSEDSAVYFCARWLIYYGTYGAMDYWGQGTSVTVSS VL: DIQMTQTTSSLSASLGDRVTISCRASQDINNYLNWYHQKPDGTVKLLIYFTSRPYSGVPSRFSGSGSGTDYSLTISNLEQEDIATYFCQQGNTLPWTFGGGTKLEIKR
